# Experimental data reported in IntAct's records for PubMed 15171681.
# B1: Protein S100-P (Homo sapiens), P25815 (parent)
# chain: MTELETAMGMIIDVFSRYSGSEGSTQTLTKGELKVLMEKELPGFLQSGKDKDAVDKLLKDLDANGDAQVDFSEFIVFVAAITSACHKYFEKAGLK
# B2: Protein S100-A1 (Homo sapiens), P23297 (parent)
# chain: MGSELETAMETLINVFHAHSGKEGDKYKLSKKELKELLQTELSGFLDAQKDVDAVDKVMKELDENGDGEVDFQEYVVLVAALTVACNNFFWENS
# partner: B1 chain
# Variants of: B1
# Settings: with S100A1, P23297
row,Variant,effect of a mutation on the interaction
1,F74G,disrupting interaction
2,F15A,disrupting interaction
3,I11A;I12A,disrupting interaction

# The remaining lines, values ahead:
row,effect of a mutation on the interaction,Variant
1,decreasing interaction,I75G;V76G
2,disrupting interaction,F74V
3,disrupting interaction,I75G
4,disrupting interaction,F71A

# Variants of: B2
# Settings: with S100P
row,effect of a mutation on the interaction,Variant
1,disrupting interaction,L12H;F16A;F72L
2,disrupting interaction,F16A
